Measured values as given in paper PMC8448731 (2021).

Target: recombinant RBD (ThermoFisher, RP-87678) (SARS-CoV-2, UniProt P0DTC2 319-541)
Experiment: BLI

B1: GST-tagged SR6v15 (VHH)
VHH: EVQLVESGGGLVQAGDSLRLSCAASGDSYILWRMGWFRQAPGKEREFVAAISLDGQFTNYADSVRGRFSISADSAKYTVYLQMNSLKPEDTAVYYCAALPFLDYWGQGTQVTVSS
- koff: 0.00175 s⁻¹
